Laboratory results published in the supplement of paper PMC10724198.
± gives the standard deviation of the averaged measurements.

Tested on: Saccharomyces cerevisiae
Test: protein stability index of tFT-peptide fusion (C-terminal peptide) (PSI (0-1 scale)); higher = more stable (slower turnover)
Conditions: genetic background: wild type; temperature: 30 C
Experimental: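 Multiplexed protein stability (MPS) profiling in S. cerevisiae. Random 12-aa peptides (tFT-X12 library) are fused to the C-terminus of a sfGFP-mCherry tandem fluorescent timer, after mCherry and a GGGS linker. Cells are FACS-sorted into 8 mCherry/sfGFP bins and deep-sequenced. The protein stability index (PSI) is the read-weighted bin average, scaled from 0 (unstable) to 1 (stable). Only peptides with >10 reads are reported; cells were grown at 30 °C in SC-His with glucose.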
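Also: PSI is a weighted mean of sequencing reads over stability bins, variants kept only with over 10 reads, mCherry proximal and sfGFP distal, peptide attached via GGGS linker.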

Sequence | protein stability index
FILCFPSLLSSL | 0.603 ± 0.022
FISEYPQCAALG | 0.738 ± 0.078
FKSYNNDLQDRI | 0.728 ± 0.16
FKVILGEFPVAW | 0.674 ± 0.0086
FLASPTPSHPRL | 0.787 ± 0.091
FLDSFCFFPPLP | 0.778 ± 0.014
FLFKLPPPPRCH | 0.678 ± 0.1
FLFLFGCSPFFG | 0.727 ± 0.057
FLIPPPFALPSL | 0.717 ± 0.08
FLISFCFVGLVL | 0.55 ± 0.014
FLLIFHSSPLPV | 0.574 ± 0.05
FLLPPPPRASSF | 0.736 ± 0.066
FLLRFSPASRAV | 0.691 ± 0.019
FLLVSLKQCHGR | 0.73 ± 0.036
FLMDSQGPWICR | 0.726 ± 0.076
FLPPSVYAHPFP | 0.743 ± 0.083
FLQHPPHVLHPY | 0.7013 ± 0.0069
FLRILRLTPRRP | 0.728 ± 0.036
FLRVVGFVCRWG | 0.679 ± 0.025
FLRYVLLPSLFV | 0.499 ± 0.01
FLSFTSLRTKGL | 0.743 ± 0.054
FLSHRMNMSGLA | 0.658 ± 0.016
FLSRFLSCLFYF | 0.576 ± 0.028
FLTSFVDLCGFY | 0.682 ± 0.0082
FLVFFRRPSRFF | 0.5856 ± 0.0058

Sequence | protein stability index
FLVKFYKYPSTR | 0.707 ± 0.12
FMLRTCFLTTSK | 0.718 ± 0.027
FMMRPPVSSKVS | 0.554 ± 0.0048
FNETVLYIVPNG | 0.639 ± 0.065
FNINRCLEGAHK | 0.717 ± 0.035
FNVSNPVSLQTG | 0.641 ± 0.021
FPCGARPFPLAF | 0.704 ± 0.049
FPELLFLFSPSF | 0.723 ± 0.022
FPFGRMNVSGGC | 0.701 ± 0.026
FPHLAPTTHLLP | 0.673 ± 0.1
FPLGRCPHIPPH | 0.664 ± 0.013
FPLSLSFLSPLV | 0.705 ± 0.12
FPPLCSSSPPLP | 0.7131 ± 0.0069
FPPRLPPSPPLP | 0.666 ± 0.036
FPRFACVLPAFH | 0.671 ± 0.081
FPSPPPPAPLPP | 0.763 ± 0.039
FPTPPPGPGPPP | 0.641 ± 0.03
FPTSRAGSLIRR | 0.678 ± 0.053
FPVARGRHWLSR | 0.732 ± 0.12
FPVPPFFLSGHL | 0.651 ± 0.11
FPVPPPPHPPLH | 0.675 ± 0.027
FPYPFSSSCFSS | 0.651 ± 0.062
FQGPPFKHVNSV | 0.701 ± 0.059
FQIRGFFGLMAD | 0.754 ± 0.046
FRASLFFVWLPS | 0.59 ± 0.085

Sequence | protein stability index
FRGGLLSLSAWV | 0.699 ± 0.02
FRGRSSLSTSCG | 0.69 ± 0.023
FRHSSAVLAPGV | 0.6896 ± 0.0057
FRLPMIRVCWSL | 0.569 ± 0.025
FRPCPLNSLSRY | 0.724 ± 0.021
FRPFLPPSRTFS | 0.676 ± 0.008
FRPLPFYRLSPP | 0.727 ± 0.021
FRPLVDVKFPRY | 0.658 ± 0.13
FRPNPCLSPCSA | 0.643 ± 0.1
FRSENSWLLCSW | 0.786 ± 0.048
FRSPRLSPSFFF | 0.717 ± 0.027
FRSTKELLQLGR | 0.664 ± 0.055
FRVSVRTVSSLR | 0.654 ± 0.037
FSELTGFMSVRG | 0.652 ± 0.025
FSFARFFSWSFS | 0.694 ± 0.13
FSFFQFSASFFL | 0.699 ± 0.039
FSGFGERFMISS | 0.6917 ± 0.0033
FSGRGSSPVAVF | 0.544 ± 0.035
FSHLLPAESPYP | 0.654 ± 0.086
FSKDDFEVTPNS | 0.819 ± 0.079
FSLLPYFPYALP | 0.739 ± 0.089
FSLVHSFRLSFC | 0.599 ± 0.012
FSMAHLDGGHRR | 0.676 ± 0.013
FSRAPHFSGRLC | 0.502 ± 0.0087
FSSCPPFRPFPL | 0.787 ± 0.04

Sequence | protein stability index
FSSTCLSSRFAI | 0.684 ± 0.07
FSVDASLPLSSV | 0.6749 ± 0.0063
FSVPLMLTFPRD | 0.721 ± 0.054
FSVSLACYPSMC | 0.698 ± 0.075
FTCRRYVGFMGG | 0.798 ± 0.025
FTGAVGPCTCRY | 0.731 ± 0.023
FTSLCLLFLFSL | 0.616 ± 0.085
FTSRGLLILGFM | 0.619 ± 0.008
FTTAGSGWESVW | 0.636 ± 0.041
FVASRFLRCLVL | 0.495 ± 0.017
FVFQYVVGNFAI | 0.617 ± 0.051
FVISRPRLHSFC | 0.5663 ± 0.0032
FVLGGLHAGYVL | 0.7146 ± 0.0038
FVLRCLGLVLPV | 0.593 ± 0.077
FVLRFRGMRPSN | 0.673 ± 0.019
FVLRFVLSLVFF | 0.494 ± 0.083
FVPLFVFSCSRS | 0.5 ± 0.014
FVSLEVLFISSL | 0.5609 ± 0.0016
FVVGGGLRMGAG | 0.62253 ± 0.00043
FVVLALKESFSV | 0.605 ± 0.057
FWCMLLAPFVNV | 0.657 ± 0.11
FWDSCAVSLYLR | 0.632 ± 0.041
FWVASREVGRAY | 0.608 ± 0.041
FYRPGNVLDGVF | 0.705 ± 0.075
GAARTPGRARTL | 0.685 ± 0.049

Sequence | protein stability index
GACCRHERIREE | 0.761 ± 0.084
GACGSTLPASSR | 0.668 ± 0.058
GADGARGVPGAG | 0.662 ± 0.018
GADGYSCGLVIT | 0.539 ± 0.11
GAENPRRLRART | 0.691 ± 0.0079
GAGEGAQEDPAS | 0.705 ± 0.013
GAGLPSGLRIGL | 0.647 ± 0.025
GAGWGWGRKGSR | 0.751 ± 0.089
GAHATVPSMVTL | 0.698 ± 0.092
GALVGWAMALGW | 0.679 ± 0.033
GAMLAGRQGGGL | 0.655 ± 0.0089
GANKQHLARKTE | 0.7254 ± 0.0069
GAPSHVTPLPQI | 0.686 ± 0.047
GARGGEGVSGGA | 0.701 ± 0.012
GARPTKCCSYGT | 0.683 ± 0.011
GARTPVPRHRVH | 0.6396 ± 0.0011
GARWGWGRKGSR | 0.692 ± 0.072
GASGGGRGNLEV | 0.727 ± 0.13
GAVARFRERALS | 0.525 ± 0.0098
GAVLSYIAPTPL | 0.7404 ± 0.0055
GAVVLAGWGVLK | 0.718 ± 0.028
GAVWGRLTGSAH | 0.6469 ± 0.005
GAVYHGGMASVR | 0.746 ± 0.054
GAWFTSSPVFGS | 0.731 ± 0.034
GCAGRHRWVGEW | 0.6649 ± 0.0027

Sequence | protein stability index
GCAITVKRLWFG | 0.656 ± 0.076
GCCGQGLPWNPP | 0.562 ± 0.0077
GCFARSEKLSGL | 0.687 ± 0.1
GCGAVEGFGVGW | 0.625 ± 0.03
GCGGAWGVWDGV | 0.729 ± 0.072
GCGLVGVVTGRD | 0.71 ± 0.14
GCIELTGHLGSF | 0.7059 ± 0.0036
GCLWRGARALGP | 0.687 ± 0.075
GCMGGYAFFSGG | 0.571
GCPRGGVGSRGV | 0.659 ± 0.098
GCRRYLFLFFGC | 0.6 ± 0.047
GCVGCNRWWPGW | 0.721 ± 0.042
GCVGIGFSPGGG | 0.656 ± 0.014
GDGAGGGFGLVV | 0.724 ± 0.097
GDGNERPLGRRD | 0.643 ± 0.052
GDHPPMETISRP | 0.734 ± 0.095
GDIGAGMGVVGE | 0.641 ± 0.0049
GDKQKKNEKNKE | 0.681 ± 0.048
GDNRGLTRVGIE | 0.718 ± 0.053
GDPADGACGPTR | 0.8 ± 0.062
GDRNNLRCWNAS | 0.712 ± 0.11
